5 molecules from patent US9266964 can be followed below.

Where two headings read alike, the source gives them in different places.

Assay [1] deals with T1, rat plasma kallikrein (rat, UniProt P14272 20-638, limits assumed).
T1 construct: also called rat pKal; rodent pKal
The assay can be described thus: apparent inhibition constant (Ki,app) from enzyme inhibition of rodent pKal.
T1 sequence (P14272 20-638 limits assumed): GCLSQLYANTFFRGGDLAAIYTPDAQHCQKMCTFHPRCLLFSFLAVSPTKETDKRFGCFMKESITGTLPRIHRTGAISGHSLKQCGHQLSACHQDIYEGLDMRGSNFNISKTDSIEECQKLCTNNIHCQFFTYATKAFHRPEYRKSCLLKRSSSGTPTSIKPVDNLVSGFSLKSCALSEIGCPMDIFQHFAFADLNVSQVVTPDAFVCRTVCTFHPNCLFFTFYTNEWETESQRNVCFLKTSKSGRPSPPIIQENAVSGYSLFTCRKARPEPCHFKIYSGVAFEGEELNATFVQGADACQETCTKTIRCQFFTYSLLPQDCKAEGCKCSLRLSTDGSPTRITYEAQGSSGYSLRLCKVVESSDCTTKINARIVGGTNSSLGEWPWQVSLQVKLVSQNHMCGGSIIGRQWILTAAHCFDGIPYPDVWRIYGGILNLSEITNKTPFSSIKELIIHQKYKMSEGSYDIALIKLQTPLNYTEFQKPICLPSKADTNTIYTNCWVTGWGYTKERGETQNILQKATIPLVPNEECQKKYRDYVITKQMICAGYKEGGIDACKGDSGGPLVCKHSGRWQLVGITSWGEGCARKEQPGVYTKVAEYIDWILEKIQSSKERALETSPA

Assay [2] has as its target T2, mouse plasma kallikrein (mouse, UniProt P26262 20-638, limits assumed).
T2 construct: also called mouse pKal; rodent pKal
The assay is described as above.
T2 sequence (P26262 20-638 limits assumed): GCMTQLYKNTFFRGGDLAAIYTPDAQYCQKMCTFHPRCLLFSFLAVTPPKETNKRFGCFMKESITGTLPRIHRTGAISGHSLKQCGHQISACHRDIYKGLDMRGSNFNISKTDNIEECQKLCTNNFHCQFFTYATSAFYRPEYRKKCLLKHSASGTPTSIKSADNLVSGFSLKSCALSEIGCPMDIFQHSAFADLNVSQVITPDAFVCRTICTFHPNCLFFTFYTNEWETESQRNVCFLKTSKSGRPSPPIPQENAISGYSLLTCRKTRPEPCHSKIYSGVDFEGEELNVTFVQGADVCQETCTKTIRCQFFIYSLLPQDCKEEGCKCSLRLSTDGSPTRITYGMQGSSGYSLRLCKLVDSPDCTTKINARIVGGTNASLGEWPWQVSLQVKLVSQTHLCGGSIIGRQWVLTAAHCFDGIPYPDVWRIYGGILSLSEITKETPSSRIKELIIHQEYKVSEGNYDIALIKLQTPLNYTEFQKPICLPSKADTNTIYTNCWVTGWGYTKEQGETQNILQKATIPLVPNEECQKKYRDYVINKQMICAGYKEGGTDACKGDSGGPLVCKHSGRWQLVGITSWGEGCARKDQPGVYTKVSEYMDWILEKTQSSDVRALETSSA

Assay [3] addresses T3, human plasma kallikrein (human, UniProt P03952 20-390; P03952 391-638).
T3 construct: two disulfide-linked chains; also called pKal; human pKal
Description: apparent inhibition constant (Ki,app) from enzyme inhibition of human pKal; IgG.
T3 sequence (P03952 20-390, chain 1 of 2): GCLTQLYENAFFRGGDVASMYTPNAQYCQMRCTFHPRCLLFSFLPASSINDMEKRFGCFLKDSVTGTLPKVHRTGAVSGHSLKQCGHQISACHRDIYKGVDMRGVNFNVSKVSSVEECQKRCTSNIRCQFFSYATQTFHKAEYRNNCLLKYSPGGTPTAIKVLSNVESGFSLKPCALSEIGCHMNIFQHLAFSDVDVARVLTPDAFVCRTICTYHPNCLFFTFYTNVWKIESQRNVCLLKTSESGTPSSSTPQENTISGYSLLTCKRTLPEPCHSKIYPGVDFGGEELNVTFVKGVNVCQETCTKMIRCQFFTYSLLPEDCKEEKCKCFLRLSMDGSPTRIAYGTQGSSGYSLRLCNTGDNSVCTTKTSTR
T3 sequence (P03952 391-638, chain 2 of 2): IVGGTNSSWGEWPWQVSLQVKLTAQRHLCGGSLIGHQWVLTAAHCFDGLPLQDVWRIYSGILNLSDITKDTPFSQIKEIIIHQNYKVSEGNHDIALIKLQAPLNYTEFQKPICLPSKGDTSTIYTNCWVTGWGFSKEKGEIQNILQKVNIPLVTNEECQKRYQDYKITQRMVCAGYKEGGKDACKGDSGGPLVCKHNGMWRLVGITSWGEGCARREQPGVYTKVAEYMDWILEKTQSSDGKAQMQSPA

The target in assay [4] is T4, human plasma kallikrein (human, UniProt P03952 20-390; P03952 391-638).
T4 construct: two disulfide linked chains; also called pKal; human pKal
Description: Ki,app, enzyme inhibition of pKal, Fab.
T4 sequence (P03952 20-390, chain 1 of 2): as the sequence (P03952 20-390, chain 1 of 2) above
T4 sequence (P03952 391-638, chain 2 of 2): as the sequence (P03952 391-638, chain 2 of 2) above

Assay [5] deals with T5, mouse plasma kallikrein (mouse, UniProt P26262 20-638, limits assumed).
T5 construct: also called mouse pKal
The assay can be described thus: apparent Ki (Ki,app), inhibition of rodent pKal enzyme activity.
T5 sequence (P26262 20-638 limits assumed): as the sequence (P26262 20-638 limits assumed) above

The target in assay [6] is T6, rat plasma kallikrein (rat, UniProt P14272 20-638, limits assumed).
T6 construct: also called rat pKal
Described as above.
T6 sequence (P14272 20-638 limits assumed): as the sequence (P14272 20-638 limits assumed) above

Assay [7] deals with T7, human plasma kallikrein (active form) (human, UniProt P03952 20-390; P03952 391-638).
T7 construct: also called pKal; human pKal
The assay can be described thus: apparent Ki (Ki,app), inhibition of human pKal enzyme activity. As to the method: (§1) Apparent Inhibition constants (K_{i,app} values) were measured by pre-incubating enzyme and inhibitor solutions prior to initiating the reactions with substrate. Enzyme and inhibitor were pre-incubated for 2 hours at 30° C. in a 96-well plate by adding 10 μL of a 10× enzyme solution and 10 μL of 10× inhibitor solutions to 70 μL of reaction buffer. Reactions were initiated by the addition of 10 μL of a 10× concentrated stock of substrate, and were monitored at 30° C. in a fluorescence plate reader with the excitation and emission wavelengths set at 360 nm/460 nm, respectively. Kinetic data were acquired by the increase in fluorescence, and initial rates for each condition were plotted against the total inhibitor concentration. The data was fit to the following equation for tight binding inhibitors: […]

For assay [8], the target named is T5, mouse plasma kallikrein. Description: apparent Ki (Ki,app), inhibition of mouse pKal enzyme activity. As to the method: as §1
The target in assay [9] is T7, human plasma kallikrein (active form). The assay can be described thus: apparent Ki (Ki,app), inhibition of human pKal enzyme activity. The source holds these as a separate data set.
Assay [10] deals with T4, human plasma kallikrein. Description: Ki,app, enzyme inhibition of pKal, IgG.
For assay [11], the target named is T8, pKal catalytic domain Mutant 2 (human, UniProt P03952 391-638).
T8 construct: Expressed in Pichia pastoris, purified by IMAC; not shown: His tag fusion
The assay can be described thus: enzyme inhibition, Ki,app on mutant and wild type pKal catalytic domain.

T7 sequence (P03952 20-390, chain 1 of 2): as the sequence (P03952 20-390, chain 1 of 2) above
T7 sequence (P03952 391-638, chain 2 of 2): as the sequence (P03952 391-638, chain 2 of 2) above
T8 sequence (P03952 other isoform, or with tags, fused parts or gaps mutant limits assumed): as the sequence (P03952 391-638, chain 2 of 2) above, with R161A, Q163A, Y165A, T168A, R170A counted along it

B1: M162-A04 (IgG) (antibody, V domains shown)
VH: EVQLLESGGGLVQPGGSLRLSCAASGFTFSHYIMMWVRQAPGKGLEWVSGIYSSGGITVYADSVKGRFTISRDNSKNTLYLQMNSLRAEDTAVYYCAYRRTGIPRRDAFDIWGQGTMVTVSS
VL: DIQMTQSPSTLSASVGDRVTITCRASQSISSWLAWYQQKPGKAPNLLIYKASTLESGVPSRFSGSGSGTEFTLTISSLQPDDFATYYCQQYNTYWTFGQGTKVEIK
notes: Human IgG; also called R84-H05; 559A-M0162-A04
With B1, the Ki in assay [1], in assay [2] and in assay [3] was 2 nM in each case.

B2: X63-G06 (Fab, V domains shown)
VH: EVQLLESGGGLVQPGGSLRLSCAASGFTFSHYLMTWVRQAPGKGLEWVSYISPSGGHTIYADSVKGRFTISRDNSKNTLYLQMNSLRAEDTAVYYCARVARGIAARSRTSYFDYWGQGTLVTVSS
VL: DIQMTQSPGTLSLSPGERATLSCRTSQFVNSNYLAWYQQTPGQAPRLLIYGASSRATGIPDRFSGTGYGTDFTLTISRLEPEDYGTYYCQQSSRTPWTFGQGTRVEIK
notes: Non-germlined Fab discovered using ROLIC, same HC but different LC as M160-G12; also called X63-G06 (Fab)
In turn, B2 displayed a Ki in assay [4] of 0.4 nM.

B3: X81-B01 (antibody, V domains shown)
VH: EVQLLESGGGLVQPGGSLRLSCAASGFTFSHYLMTWVRQAPGKGLEWVSYISPSGGHTIYADSVKGRFTISRDNSKNTLYLQMNSLRAEDTAVYYCARVARGIAARSRTSYFDYWGQGTLVTVSS
VL: EIVLTQSPGTLSLSPGERATLSCRTSQFVNSNYLAWYQQKPGQAPRLLIYGASSRATGIPDRFSGSGSGTDFTLTISRLEPEDFAVYYCQQSSRTPWTFGQGTKVEIK
notes: also called X81-B01 (IgG); 559A-X81-B01
Regarding B3, the Ki in [5] came to 0.011 nM; in assay [6] it was 0.14 nM; in assay [7], 0.1 nM; in assay [8] it was 0.011 nM; in assay [9], 0.2 nM.

B4: X81-B01 (antibody, V domains shown)
VH: EVQLLESGGGLVQPGGSLRLSCAASGFTFSHYLMTWVRQAPGKGLEWVSYISPSGGHTIYADSVKGRFTISRDNSKNTLYLQMNSLRAEDTAVYYCARVARGIAARSRTSYFDYWGQGTLVTVSS
VL: EIVLTQSPGTLSLSPGERATLSCRTSQFVNSNYLAWYQQKPGQAPRLLIYGASSRATGIPDRFSGSGSGTDFTLTISRLEPEDFAVYYCQQSSRTPWTFGQGTKVEIK
notes: also called X81-B01 (IgG)
The molecule B4 yielded a Ki in assay [10] of 0.2 nM.

B5: M6-D09 (antibody, V domains shown)
VH: EVQLLESGGGLVQPGGSLRLSCAASGFTFSFYYMVWVRQAPGKGLEWVSVIYPSGGITVYADSVKGRFTISRDNSKNTLYLQMNSLRAEDTAVYYCARDKWAVMPPYYYYAMDVWGQGTTVTVSS
VL: DIQMTQSPSSLSASVGDRVTITCRASQSIRNYLNWYQQKPGKAPNLLIYAASTLQSGVPARFSGSGSGTDFTLTISSLQPEDFATYYCQQLSGYPHTFGQGTKLEIK
notes: Group 3 antibody; also called M06-D09; 559A-M06-D09
B5: the “fold increase of Ki,app against the wild type catalytic domain” value in assay [11] is ~5 fold.
